± gives the uncertainty stated by the source.
Assay: self-splicing fitness, log relative to wild type (ln ratio); higher = more splicing; Tetrahymena group I intron in knt gene, E. coli kanamycin selection, DiMSum; sequences stand for … in CUCUCU…GGAGGGAAAAGUUAUCAGGCAUGCACCUGGUAGCUAGUCUUUAAACCAAUAGAUUGCAUCGGUUUAAAAGGCAAGACCGUCAAAUUGCGGGAAAGGGGUCAACAGCCGUUCAGUACCAAGUCUCAGGGGAAACUUUGAGAUGGCCUUGCAAAGGGUAUGGUAAUAAGCUGACGGACAUGGUCCUAACCACGCAGCCAAGUCCUAAGUCAACAGAUCUUCUGUUGAUAUGGAUGCAGUUCACAGACUAAAUGUCGGUCGGGGAAGAUGUAUUCUUCUCAUAAGAUAUAGUCGGACCUCUCCUUAAUGGGAGCUAGCGGAUGAAGUGAUGCAACACUGGAGCCGCUGGGAACUAAUUUGUAUGCGAAAGUAUAUUGAUUAGUUUUGGAGUACUCGUGGUCG
How it was run: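 A randomised library covering all eight P1ex-region intron nucleotides was built with the intron in the knt kanamycin-resistance gene on pET-22b(+) and held in E. coli BL21(DE3). Cells were grown overnight at 37°C or 30°C on LB agar, with or without 25 μg/mL kanamycin, plus 100 μg/mL carbenicillin, 50 μM IPTG and 0.2% rhamnose, and pooled colonies were amplicon-sequenced on an Illumina HiSeq 2500. DiMSum fitness is the error-weighted combination of wild-type-normalised replicate fold changes, kanamycin versus none.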

Sequence | self-splicing fitness (ln) (30 °C) | self-splicing fitness (ln) (37 °C)
UGGGAGCAAUAUUACGCGUA | -0.6 ± 0.38 | 0.46 ± 0.3
ACGAAGCAAUAUUACGACCG | -0.458 ± 0.12 | 0.219 ± 0.14
CUAUAGCAAUAUUACGAACG | 0.0017 ± 0.29 | -0.388 ± 0.33
UAGCAGCAAUAUUACGUAAU | -3.27 ± 0.12 | -0.695 ± 0.089
AAUGAGCAAUAUUACGAUUC | -3.1 ± 0.26 | -2.43 ± 0.26
CCUCAGCAAUAUUACGGUUA | -3.34 ± 0.21 | -3.26 ± 0.19
CACCAGCAAUAUUACGGCUA | -1.1 ± 0.083 | -0.202 ± 0.074
ACUCAGCAAUAUUACGGUCG | -3.23 ± 0.12 | -1.33 ± 0.1
GCAGAGCAAUAUUACGCGCU |  | -2.13 ± 0.35
GUAUAGCAAUAUUACGUCAG | -3.96 ± 0.35 | -1.08 ± 0.18
CUAGAGCAAUAUUACGAUCG | 0.45 ± 0.066 | 0.245 ± 0.088
GCAUAGCAAUAUUACGUAUG | -2.85 ± 0.17 | -2.44 ± 0.26
GGAGAGCAAUAUUACGAUUA |  | -0.884 ± 0.37
GCAGAGCAAUAUUACGGAAC |  | -0.993 ± 0.17
UAUAAGCAAUAUUACGUCUU | -1 ± 0.085 | -0.554 ± 0.1
ACCUAGCAAUAUUACGAGAA | -2.97 ± 0.35 | -2.29 ± 0.31
AUUCAGCAAUAUUACGUCAC | -3.45 ± 0.2 | -2.19 ± 0.25
UCACAGCAAUAUUACGAGAA | -3.16 ± 0.34 | -1.68 ± 0.24
GAUCAGCAAUAUUACGGAAG | -2.38 ± 0.1 | -0.761 ± 0.091

Sequence | self-splicing fitness (ln) (30 °C) | self-splicing fitness (ln) (37 °C)
UUACAGCAAUAUUACGGAGU | -4.03 ± 0.29 | -2.7 ± 0.22
GACCAGCAAUAUUACGGGUA | -0.533 ± 0.058 | -0.146 ± 0.061
AUCAAGCAAUAUUACGCACC | -0.849 ± 0.26 | -0.581 ± 0.31
ACCUAGCAAUAUUACGUACG | -2.46 ± 0.16 | -1.02 ± 0.14
GGUAAGCAAUAUUACGAUGA | -1.83 ± 0.26 | -0.16 ± 0.2
CGGAAGCAAUAUUACGGUAA | -3.11 ± 0.23 | -2.23 ± 0.24
UAUGAGCAAUAUUACGACAA | -2.78 ± 0.29 | -0.6 ± 0.18
UUAUAGCAAUAUUACGGUCA | -0.871 ± 0.13 | -0.305 ± 0.17
CGUCAGCAAUAUUACGAUAG | -0.505 ± 0.054 | -0.11 ± 0.074
GGCUAGCAAUAUUACGUUCG | -0.933 ± 0.097 | -0.427 ± 0.12
GCAUAGCAAUAUUACGUCAU | -3.5 ± 0.16 | -1.89 ± 0.098
UGGGAGCAAUAUUACGGUAG | -3.16 ± 0.28 | -1.26 ± 0.21
GCCGAGCAAUAUUACGGAGC | -2.69 ± 0.44 | 
AGCUAGCAAUAUUACGAGAU | -3.17 ± 0.19 | -1.22 ± 0.16
GGGUAGCAAUAUUACGAGCA | -0.991 ± 0.2 | 0.0569 ± 0.17
UCUAAGCAAUAUUACGUUGA | -1.71 ± 0.089 | -1.29 ± 0.086
GAUAAGCAAUAUUACGCAAG | -2.51 ± 0.25 | -1.34 ± 0.21
AUUAAGCAAUAUUACGACCU | -0.144 ± 0.17 | 0.145 ± 0.18
CUGUAGCAAUAUUACGCACA | -2.05 ± 0.13 | -1.19 ± 0.16

Reference: the supplement of paper PMC7877785
